Experimental data taken from PMC5758886.

How the values were obtained:
[1] = biological target: AcrIIA1 (native wild type) (Listeria monocytogenes prophages); assay: SEC
[2] = biological target: AcrIIA1 (native wild type) (Listeria monocytogenes prophages); assay: crystal structure
[3] = biological target: AcrIIA1 selenomethionyl L52M mutant (Listeria monocytogenes prophages); assay: crystal structure

For “AcrIIA1 (native wild type) (natural protein)”, the stoichiometry N [1] was 2 and the stoichiometry N [2] was 2.

“AcrIIA1 selenomethionyl L52M mutant (natural protein)” showed a stoichiometry N [3] of 2.
